{"source": "patent EP4725966A1", "about": "“HUMAN EPIDERMAL GROWTH FACTOR 3 ANTIBODY, PREPARATION METHOD THEREFOR, AND USE THEREOF” (priority 2023, dated 2024)", "key": {"[1]": {"tested_on": "HER3-expressing HCC1569 cells", "experiment": "ADC cytotoxicity", "format": "cell-based", "details": "FIG. 13", "method": "(§1) A375 and OVCAR3 cells were seeded in 96-well plates at 5,000 cells per well, and gradient-diluted ADCs (cHE4-G1W-DXd, cHE5-G1W-DXd, cHE7-G1W-DXd, patritumab-DXd, and IgG-DXd) were added. After incubation at 37°C for 5 days, cell viability was measured using CellTiter-Glo (Promega) to evaluate cytotoxicity of the ADCs.\n(§2) The cytotoxicity of antibody-drug conjugates based on hHE4-G1W against HER3-expressing HCC1569, A375, and JIMT-1 tumor cells was tested. Antibody-drug conjugates were prepared as described in Example 11. Hydrophobic interaction chromatography indicated the antibody-to-Dxd ratios for cHE4-G1W-DXd, hHE4-G1W-DXd, patritumab-DXd, and negative control IgG-DXd were 1:7, 1:8, 1:7.8, and 1:8, respectively."}, "[2]": {"tested_on": "human HER3-overexpressing JIMT-1 cells", "experiment": "ADC cytotoxicity", "format": "cell-based", "details": "FIG. 13", "method": "as §1, §2"}, "[3]": {"tested_on": "A375 cells overexpressing human HER3", "experiment": "ADC cytotoxicity, CellTiter-Glo", "format": "cell-based", "details": "Example 21, FIG. 13"}, "[4]": {"tested_on": "HER3-overexpressing A375 cells", "experiment": "Cell imaging of internalization", "format": "cell-based", "details": "100 nM, FIG. 11", "method": "A cell imaging microplate detection system was used to monitor the internalization of hHE4-G1W, hHE4-G1W-DXd, patritumab, and patritumab-DXd after binding to HER3 on the surface of A375 tumor cells. hHE4-G1W, hHE4-G1W-DXd, patritumab, and patritumab-DXd (each 100 nM) were incubated with HER3-overexpressing A375 cells at 4°C for 30 minutes, respectively. Unbound antibodies were removed by washing, and PE-labeled goat anti-human Fc secondary antibody (Jackson) was added. The mixture was incubated at 4°C for 30 minutes, and then the unbound secondary antibody was removed by washing. When the antibodies were bound to the surface of A375 cells and had not yet undergone internalization, these samples were designated as the 0h samples. Fluorescence images were acquired using a Biotek Cytation 1 imaging reader. Cells were then incubated at 37°C for 3 hours and imaged again."}, "SW620 tumor": {"tested_on": "SW620 tumor", "experiment": "Tumor inhibition in SW620 tumor-bearing mice", "format": "in vivo, Female SCID mice", "details": "3 mg/kg, single dose, FIG. 14", "method": "The anti-tumor efficacy of hHE4-G1W-DXd and cHE5-G1W-DXd was evaluated in SW620 tumor-bearing mice. Female SCID mice were subcutaneously injected with SW620 cells in the dorsal region to establish the xenograft model. After tumor establishment, mice were randomly divided into nine groups and treated with a single dose. Three groups served as negative controls: one group received PBS, and two groups received IgG-DXd at low dose (3 mg/kg) and high dose (6 mg/kg), respectively. Experimental groups were administered with hHE4-G1W-DXd, cHE5-G1W-DXd, or patritumab-DXd at 3 mg/kg or 6 mg/kg. The average Dxd-to-antibody ratio was 8. Mouse body weights and tumor volumes were measured."}}}
{"substance": "patritumab-DXd [reference compound]", "values": [{"measurement": "cytotoxicity against HCC1569 cells", "setting": "[1]", "value": "significant cytotoxicity"}, {"measurement": "cytotoxicity against JIMT-1 cells", "setting": "[2]", "value": "significant cytotoxicity"}, {"measurement": "cytotoxicity against A375 cells", "setting": "[3]", "value": "significant cytotoxicity"}, {"measurement": "binding to HER3 on the surface of A375 cells", "setting": "[4]; 0 hour", "value": "bound to HER3 expressed on the cell surface"}, {"measurement": "internalization into A375 cells", "setting": "[4]; after 3 hours at 37°C", "value": "internalized into the A375 cells"}, {"measurement": "tumor growth", "setting": "SW620 tumor", "value": "significant tumor growth at day 14 postadministration"}]}
